# Molecular target: PERK luminal domain W165A (UniProt Q9NZJ5)
# Experiment: sedimentation velocity AUC
# Sequence of PERK luminal domain W165A (Q9NZJ5 105-403 W164A/Q166R): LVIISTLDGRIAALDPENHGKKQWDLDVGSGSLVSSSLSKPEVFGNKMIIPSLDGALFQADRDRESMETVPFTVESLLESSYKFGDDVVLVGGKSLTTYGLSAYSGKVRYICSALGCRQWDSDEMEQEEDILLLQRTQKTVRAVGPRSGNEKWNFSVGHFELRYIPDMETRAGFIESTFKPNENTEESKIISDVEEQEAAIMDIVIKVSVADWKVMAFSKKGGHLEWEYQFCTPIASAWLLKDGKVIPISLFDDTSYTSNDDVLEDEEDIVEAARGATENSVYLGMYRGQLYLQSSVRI
substance,measurement,setting,value
human PERK luminal domain (residues 105–403) (from UniProt Q9NZJ5) W165A,other: % (change in tetramer against wild-type),parent: 0,-23%
same,other: tetramer (relative to dimer = 1),parent: 0.73,0.56

# Reference: article PMC4474532
